The source of these data is patent publication US20190309066A1 (ARCH ONCOLOGY, published 2019).

The target in this assay is T1, human CD47 expressed on cells (human, UniProt Q08722 19-292).
T1 construct: also called hCD47; integrin-associated protein
The assay can be described thus: flow cytometry on freshly isolated human RBCs, FITC-labelled donkey anti-human antibody, MFI. The protocol:
FIG. 7. Binding of VLX9 Humanized mAbs to Human RBCs. […] RBCs were incubated for 60 minutes at 37° C. with various concentrations of VLX9 mAbs, washed and incubated for 1 hr with FITC-labelled donkey anti-human antibody. Cells were washed and antibody binding measured using flow cytometry.
Binding activities of chimeric and humanized VLX4, VLX8, and VLX9 mAbs to human CD47 on hRBCs were also determined using flow cytometry.
A general note: A flow cytometer gives signals particle by particle.

T1 sequence (Q08722 other isoform, or with tags, fused parts or gaps limits assumed): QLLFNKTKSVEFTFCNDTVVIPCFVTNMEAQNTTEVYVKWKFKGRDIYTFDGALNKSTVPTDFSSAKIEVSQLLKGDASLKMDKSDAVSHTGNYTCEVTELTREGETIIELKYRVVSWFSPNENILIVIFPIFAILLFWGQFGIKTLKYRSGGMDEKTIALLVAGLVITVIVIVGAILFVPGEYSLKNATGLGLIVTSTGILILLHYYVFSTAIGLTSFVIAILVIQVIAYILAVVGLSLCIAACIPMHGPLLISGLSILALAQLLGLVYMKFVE

B1: VLX9 IgG2 (xi) (antibody)
heavy: QVQLQQFGAELAKPGASVQMSCKASGYTFTNYWIHWVKQRPGQGLEWIGYTDPRTDYTEYNQKFKDKATLAADRSSSTAYMRLSSLTSEDSAVYYCAGGGRVGLGYWGHGSSVTVSSASTKGPSVFPLAPCSRSTSESTAALGCLVKDYFPEPVTVSWNSGALTSGVHTFPAVLQSSGLYSLSSVVTVPSSNFGTQTYTCNVDHKPSNTKVDKTVERKCCVECPPCPAPPVAGPSVFLFPPKPKDTLMISRTPEVTCVVVDVSHEDPEVQFNWYVDGVEVHNAKTKPREEQFNSTFRVVSVLTVVHQDWLNGKEYKCKVSNKGLPAPIEKTISKTKGQPREPQVYTLPPSREEMTKNQVSLTCLVKGFYPSDIAVEWESNGQPENNYKTTPPMLDSDGSFFLYSKLTVDKSRWQQGNVFSCSVMHEALHNHYTQKSLSLSPGK
light: DVFMTQTPLSLPVSLGDQASISCRSSQNIVQSNGNTYLEWYLQKPGQSPKLLIYKVFHRFSGVPDRFSGSGSGTDFTLKISRVEAEDLGVYYCFQGSHVPWTFGGGTKVEIKRTVAAPSVFIFPPSDEQLKSGTASVVCLLNNFYPREAKVQWKVDNALQSGNSQESVTEQDSKDSTYSLSSTLTLSKADYEKHKVYACEVTHQGLSSPVTKSFNRGEC
notes: murine-human chimera; also called VLX9 IgG2 chimera (xi)
For B1, the “EC50 (read off the curve)” value is approximately 500 pM.

A word on the EC50 (read off the curve): it is the midpoint of the concentration-response curve.
